In US20110189154A1 (published 2011):

Biological target: T1, Tsa1 (S. cerevisiae 2-Cys peroxyredoxin) (S. cerevisiae, UniProt P34760 2-196)
T1 construct: Endogenous yeast protein after H2O2 treatment of the cells; also called Tsa1 protein
T1 sequence (looked up): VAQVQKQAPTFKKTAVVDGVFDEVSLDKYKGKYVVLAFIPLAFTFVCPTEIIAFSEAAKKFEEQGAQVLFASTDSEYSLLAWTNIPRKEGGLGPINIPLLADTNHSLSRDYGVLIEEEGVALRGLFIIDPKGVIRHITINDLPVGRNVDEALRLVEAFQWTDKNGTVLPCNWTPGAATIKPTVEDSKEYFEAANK
Test: Western blot of Srx1-HA after nonreducing/reducing SDS-PAGE (FIG. 7a)
Method: FIG. 7 illustrates the interaction between Tsa1 and Srx1 in a covalent (disulfide bridge) and noncovalent manner; FIG. 7a: Western blotting of the HA-tagged Srx1 protein (lanes 1, 2 and 3) or of HA-tagged Srx1^C84S (lane 4) expressed in a wild-type strain (WT) (lanes 1, 2, 4) or in Δtsa1 cells (lane 3) treated for 15 min with H₂O₂ (500 μM), after SDS-PAGE electrophoresis carried out under reducing (R) (lane 2) or nonreducing (NR) (lanes 1, 3, 4) conditions; FIG. 7b: the proteins copurified with the Srx1 tagged with 6His (lanes 2, 4) or the untagged Srx1 (lanes 1, 3) under nonreducing conditions are separated by SDS-PAGE under nonreducing (lanes 1, 2) or reducing (lanes 3, 4) conditions and visualized by Coomassie blue staining. The protein bands are identified by MALDI-TOF mass spectrometry as indicated;
(A) Cells containing a tagged (HA) copy of the Srx1 protein are treated with 500 μM of H₂O₂ for 15 minutes. […]

B1: Srx1-HA (S. cerevisiae Srx1 with two HA epitopes at the C-terminal) (enzyme, not shown: small tags and cut ends)
chain: MSLQSNSVKPTEIPLSEIRRPLAPVLDPQKIDAMVATMKGIPTASKTCSLEQAEAAASAGELPPVDVLGVRVKGQTLYYAFGGCHRLQAYDRRARETQNAAFPVRCRVLPATPRQIRMYLGSSLDIE
modifications: Two HA epitopes fused at the C-terminal of Srx1 (letters not given, left out). In the assay Cys84 forms an intermolecular disulfide bridge with Tsa1.
notes: also called HA-tagged Srx1 protein
B1: binds.
